Results from IntAct's records for PubMed 29150600.

Target: tlr4_human TLR4 (UniProt O00206)
Sequence (O00206 whole entry): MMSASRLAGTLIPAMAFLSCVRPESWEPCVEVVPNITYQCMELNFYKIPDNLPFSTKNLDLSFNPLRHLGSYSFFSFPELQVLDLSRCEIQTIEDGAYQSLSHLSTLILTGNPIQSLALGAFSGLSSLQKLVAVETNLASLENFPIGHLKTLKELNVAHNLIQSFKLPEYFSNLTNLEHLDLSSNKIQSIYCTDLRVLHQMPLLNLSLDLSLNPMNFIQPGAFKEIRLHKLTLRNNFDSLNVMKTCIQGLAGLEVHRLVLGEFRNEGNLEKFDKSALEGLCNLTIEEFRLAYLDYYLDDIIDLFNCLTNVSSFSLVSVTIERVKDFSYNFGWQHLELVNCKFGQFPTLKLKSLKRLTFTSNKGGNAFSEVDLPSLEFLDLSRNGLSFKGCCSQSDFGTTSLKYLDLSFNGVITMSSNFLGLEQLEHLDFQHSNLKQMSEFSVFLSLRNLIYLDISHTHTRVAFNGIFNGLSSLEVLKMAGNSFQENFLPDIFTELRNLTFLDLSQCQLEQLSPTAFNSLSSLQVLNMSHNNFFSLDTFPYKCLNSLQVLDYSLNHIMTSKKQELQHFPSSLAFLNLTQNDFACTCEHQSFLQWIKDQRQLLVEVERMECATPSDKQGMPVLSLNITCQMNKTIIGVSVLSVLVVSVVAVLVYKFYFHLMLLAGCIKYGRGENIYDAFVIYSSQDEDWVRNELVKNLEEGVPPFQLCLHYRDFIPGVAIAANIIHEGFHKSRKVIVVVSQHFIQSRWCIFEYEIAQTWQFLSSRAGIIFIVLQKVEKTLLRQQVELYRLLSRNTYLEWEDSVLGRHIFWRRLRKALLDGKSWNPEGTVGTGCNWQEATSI

Effect of a mutation on the interaction, decreasing interaction strength:
Tenascin (Homo sapiens), P24821 K2096A;R2098A;K2100A;K2102A;D2130P;I2133L;N2135S
Tenascin (Homo sapiens), P24821 D2130P;I2133L;N2135S
Tenascin (Homo sapiens), P24821 K2096A;R2098A;K2100A;K2102A
Tenascin (Homo sapiens), P24821 K2100A;K2102A
Tenascin (Homo sapiens), P24821 K2096A;R2098A
